How the values were obtained:
purified αVβ3 integrin [1] = biological target: purified αVβ3 integrin (UniProt P06756); assay: [125I]-T4 radioligand displacement on purified αVβ3, native gel band intensity; LM609 at 2 µg/ml
purified αVβ3 integrin [2] = biological target: purified αVβ3 integrin (UniProt P06756); assay: [125I]-T4 radioligand displacement on 2 µg purified αVβ3, native gel band intensity; LM609 at 1 µg/ml
purified αVβ3 integrin [3] = biological target: purified αVβ3 integrin (UniProt P06756); assay: [125I]-T4 radioligand displacement on purified αVβ3, native gel band intensity; LM609 at 8 µg/ml
purified αVβ3 integrin [4] = biological target: purified αVβ3 integrin (UniProt P06756); assay: [125I]-T4 radioligand displacement on purified αVβ3, native gel band intensity; LM609 at 4 µg/ml
purified αVβ3 integrin [5] = biological target: purified αVβ3 integrin (UniProt P06756); assay: [125I]-T4 radioligand displacement on purified αVβ3, native gel band intensity; SC7312 at 8 µg/ml
purified αVβ3 integrin [6] = biological target: purified αVβ3 integrin (UniProt P06756); assay: [125I]-T4 radioligand displacement on purified αVβ3, native gel band intensity; SC7312 at 4 µg/ml
purified αVβ3 integrin [7] = biological target: purified αVβ3 integrin (UniProt P06756); assay: [125I]-T4 radioligand displacement on purified αVβ3, native gel band intensity; SC7312 at 2 µg/ml
purified αVβ3 integrin [8] = biological target: purified αVβ3 integrin (UniProt P06756); assay: [125I]-T4 radioligand displacement on purified αVβ3, native gel band intensity; SC7312 at 8 µg/ml (figure legend; Example 17 prints 59%)
purified αVβ3 integrin [9] = biological target: purified αVβ3 integrin (UniProt P06756); assay: [125I]-T4 radioligand displacement on purified αVβ3, native gel band intensity; SC7312 at 1 µg/ml

Sequence of UniProt P06756 (P06756 31-1048, form in doubt, chain 1 of 2): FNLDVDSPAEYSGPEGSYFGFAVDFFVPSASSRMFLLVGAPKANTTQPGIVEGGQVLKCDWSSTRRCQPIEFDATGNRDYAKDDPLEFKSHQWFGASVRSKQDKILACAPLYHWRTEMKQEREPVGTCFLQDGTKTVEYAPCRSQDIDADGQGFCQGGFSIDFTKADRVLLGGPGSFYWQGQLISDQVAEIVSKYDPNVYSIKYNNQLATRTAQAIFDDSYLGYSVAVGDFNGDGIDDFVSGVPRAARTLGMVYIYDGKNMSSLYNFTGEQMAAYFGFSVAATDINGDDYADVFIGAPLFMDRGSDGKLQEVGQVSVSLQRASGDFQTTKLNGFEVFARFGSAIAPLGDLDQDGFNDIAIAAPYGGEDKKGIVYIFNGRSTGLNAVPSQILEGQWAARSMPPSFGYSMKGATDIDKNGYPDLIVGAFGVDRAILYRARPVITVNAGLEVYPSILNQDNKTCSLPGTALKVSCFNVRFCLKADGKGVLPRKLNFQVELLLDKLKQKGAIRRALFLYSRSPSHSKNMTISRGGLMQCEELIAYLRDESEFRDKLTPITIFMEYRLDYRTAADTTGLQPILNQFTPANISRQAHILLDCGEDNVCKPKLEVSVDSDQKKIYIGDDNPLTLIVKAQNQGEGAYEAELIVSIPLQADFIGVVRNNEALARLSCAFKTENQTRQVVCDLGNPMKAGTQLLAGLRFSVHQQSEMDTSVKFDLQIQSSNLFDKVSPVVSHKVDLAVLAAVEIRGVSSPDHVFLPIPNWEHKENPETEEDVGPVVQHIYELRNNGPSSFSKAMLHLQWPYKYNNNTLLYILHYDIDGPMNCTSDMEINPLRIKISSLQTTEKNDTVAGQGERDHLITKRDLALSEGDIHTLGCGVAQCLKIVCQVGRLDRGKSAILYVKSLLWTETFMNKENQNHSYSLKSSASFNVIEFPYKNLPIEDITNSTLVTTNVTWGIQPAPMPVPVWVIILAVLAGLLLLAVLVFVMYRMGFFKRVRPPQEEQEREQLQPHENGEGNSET
Sequence of UniProt P06756 (P05106 27-788, form in doubt, chain 2 of 2, further chain): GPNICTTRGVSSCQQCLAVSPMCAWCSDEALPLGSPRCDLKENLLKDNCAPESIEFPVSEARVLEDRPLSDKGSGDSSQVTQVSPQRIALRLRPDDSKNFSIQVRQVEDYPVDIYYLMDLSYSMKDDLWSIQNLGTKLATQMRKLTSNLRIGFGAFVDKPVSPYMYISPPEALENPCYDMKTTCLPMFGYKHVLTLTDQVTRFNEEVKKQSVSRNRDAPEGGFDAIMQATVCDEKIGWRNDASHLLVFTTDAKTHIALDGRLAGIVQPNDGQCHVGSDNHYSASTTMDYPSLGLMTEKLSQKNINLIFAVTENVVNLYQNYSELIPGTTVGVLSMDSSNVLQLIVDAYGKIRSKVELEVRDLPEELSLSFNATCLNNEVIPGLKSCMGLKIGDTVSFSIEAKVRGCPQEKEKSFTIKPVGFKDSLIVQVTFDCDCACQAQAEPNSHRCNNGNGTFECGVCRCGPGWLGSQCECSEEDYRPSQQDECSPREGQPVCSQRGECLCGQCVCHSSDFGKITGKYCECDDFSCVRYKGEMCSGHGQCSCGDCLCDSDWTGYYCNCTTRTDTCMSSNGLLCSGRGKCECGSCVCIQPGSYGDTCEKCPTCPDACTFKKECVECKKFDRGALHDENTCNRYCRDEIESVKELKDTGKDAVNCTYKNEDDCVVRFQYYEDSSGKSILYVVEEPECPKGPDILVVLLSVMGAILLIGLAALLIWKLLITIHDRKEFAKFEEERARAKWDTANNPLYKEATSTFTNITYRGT

| Substance | percent reduction of [125I]T4-αVβ3 band intensity (purified αVβ3 integrin [1]) | percent reduction of [125I]T4-αVβ3 complex formation (purified αVβ3 integrin [2]) | percent reduction of [125I]T4-αVβ3 band intensity (purified αVβ3 integrin [3]) | percent reduction of [125I]T4-αVβ3 band intensity (purified αVβ3 integrin [4]) | percent reduction of T4 binding to αVβ3 (purified αVβ3 integrin [5]) | percent reduction of T4 binding to αVβ3 (purified αVβ3 integrin [6]) | percent reduction of T4 binding to αVβ3 (purified αVβ3 integrin [7]) | percent reduction of T4 binding to αVβ3 (purified αVβ3 integrin [8]) | percent reduction of T4 binding to αVβ3 (purified αVβ3 integrin [9]) |
| --- | --- | --- | --- | --- | --- | --- | --- | --- | --- |
| monoclonal antibody LM609 to αVβ3 | 64% | 52% | 81% | 63% | – | – | – | – | – |
| monoclonal antibody SC7312 to αVβ3 | – | – | – | – | 59% | 47% | 46% | 58% | 20% |

Source: patent US9579300
